Key:
soybean seeds = assay: Free amino acid concentration in seeds of soybean transformed with threonine deaminase constructs (TCA extraction, OPA HPLC, fluorescence); assay type: in vivo; conditions: transformed soybean plants
Description: The concentration of free isoleucine in seeds was determined by crushing approximately 50 mg of seed, placing the crushed material in a centrifuge vial, and then weighing. One mL of 5% trichloroacetic acid was added to each sample vial. The samples were mixed, using a vortex mixer, at room temperature for 15 minutes. The samples were then spun in a microcentrifuge for 15 minutes at 14,000 rpm. Some of the supernatant was then removed, placed in a HPLC vial and sealed. Samples were kept at 4° C. prior to analysis. A single seed analysis was performed on all R1 soybean seed, with 5 seeds per event, and one injection per seed. For subsequent generations representing the R2 and R3 seeds, a bulk assay having 10 seeds for each event, and one injection per event was used. The samples were analyzed using the Agilent Technologies 1100 series HPLC system. A 0.5 μL aliquot of the sample was derivatized with 2.5 μL of OPA (o-phthalaldehyde and 3-mercaptopropionic acid in borate buffer, Hewlett-Packard PN 5061-3335) reagent in 10 μl of 0.4 N borate buffer pH 10.2 (Hewlett-Packard, PN 5061-3339). The derivative was injected onto an Agilent Technologies Eclipse® XDB-C18 3.5 μm, 4.6×75 mm at 2 mL/min flow rate. […] Isoleucine concentrations were measured using fluorescence detection (excitation at 340 nm, emission at 450 nm) and values were calculated from a standard curve ranging from 10 to 800 μg/mL. […]

[1] = test system: E. coli threonine deaminase; assay: Steady state kinetic analysis of E. coli ilvA threonine deaminase variants, continuous assay of α-ketobutyrate at 230 nm, with and without L-isoleucine; assay type: biochemical; conditions: for Km: E. coli ilvA TD expressed in E. coli, crude extract, pH 7.5, read-out: Km^Thr; for IC50: inhibition of TD activity by L-isoleucine
Description: Before conducting further transformation experiments using the isolated ilvA alleles in transgenic plants, each allele was over-expressed in E. coli to determine its kinetic parameters. Kinetics data on threonine deaminases containing various mutations, and a comparison to data available for threonine deaminases from Arabidopsis, are provided in Table 4. The E. coli ilvA481 variants were subcloned into pSE380 (Invitrogen, Carlsbad, Calif.) and expression was induced with 0.2 mM IPTG at 37° C. for 3 hours. Expression of the E. coli alleles was high and fairly consistent as visualized by SDS-PAGE.
The effects of amino acid substitutions at Leu481 in ilvA were assessed by steady state kinetic analysis in the presence and absence of L-isoleucine. Threonine deaminase polypeptides for use in in vitro kinetics studies were extracted from E. coli cells in assay buffer containing 50 mM potassium phosphate (pH7.5), 1 mM dithiothreitol (DTT), and 0.5 mM ethylenediamine-tetraacetate. A continuous assay method was employed to monitor the formation of α-ketobutyrate directly at 230 nm (ε230 (pH7.5)=540 M^−1cm^−1 whereas threonine absorption was negligible (˜1%)). The assay was initiated by adding 20 μl of crude extract diluted 1:20 v/v to the assay vessel containing L-threonine (between 2.5 mM and 50 mM) in a final volume of 1 mL. For L-isoleucine inhibition, L-isoleucine was added between 0 mM and 20 mM. The kinetic parameters were determined by fitting the data points to the equations using GraFit 4.0 software (Erithacus Software, Surrey, UK). For comparison, the kcat values of L481 alleles were normalized to the kcat value for the wild type IlvA enzyme. Enzymes represented in FIG. 7 are: wild type E. coli threonine deaminase (circles), L481Y TD enzyme (diamonds), L481F TD enzyme (triangles), and the L481T TD enzyme (squares). Table 4 also summarizes the kinetic parameters of the variant threonine deaminase enzymes produced by the various E. coli ilvA alleles.

[2] = biological target: T1, Arabidopsis threonine deaminase (Arabidopsis thaliana, UniProt Q9ZSS6); assay: Kinetics data for Arabidopsis threonine deaminases (comparison in Table 4, FIG. 6); assay type: biochemical; conditions: initial velocity vs threonine concentration
T1 sequence (Q9ZSS6 92-592): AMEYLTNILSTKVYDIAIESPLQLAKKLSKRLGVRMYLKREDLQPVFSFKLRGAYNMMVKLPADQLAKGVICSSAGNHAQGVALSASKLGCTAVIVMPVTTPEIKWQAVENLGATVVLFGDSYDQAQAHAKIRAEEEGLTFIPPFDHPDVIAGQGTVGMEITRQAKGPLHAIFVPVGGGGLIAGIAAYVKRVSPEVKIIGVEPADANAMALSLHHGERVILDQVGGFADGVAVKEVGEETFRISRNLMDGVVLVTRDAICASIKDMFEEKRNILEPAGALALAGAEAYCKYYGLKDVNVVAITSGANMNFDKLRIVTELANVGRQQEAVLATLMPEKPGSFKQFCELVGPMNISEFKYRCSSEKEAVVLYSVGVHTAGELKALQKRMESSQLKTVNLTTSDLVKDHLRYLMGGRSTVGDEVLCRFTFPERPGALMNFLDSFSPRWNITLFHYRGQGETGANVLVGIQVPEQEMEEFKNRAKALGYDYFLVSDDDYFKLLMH

## ilvA219: mutagenized E. coli threonine deaminase gene containing the L447F mutation
Soybean seeds
  free isoleucine concentration in the seed: > 600 µg/g

## ilvA466: mutagenized E. coli threonine deaminase gene containing the L481F mutation
Soybean seeds
  free isoleucine concentration in the seed: > 1300 µg/g

B1: L481K: E. coli threonine deaminase, Leu at position 481 replaced with Lys (protein, listed as Escherichia coli)
chain: MADSQPLSGAPEGAEYLRAVLRAPVYEAAQVTPLQKMEKLSSRLDNVILVKREDRQPVHSFKLRGAYAMMAGLTEEQKAHGVITASAGNHAQGVAFSSARLGVKALIVMPTATADIKVDRLRGFGGEVLLHGANFDEAKRKAIELSQQQGFTWVPPFDHPMVIAGQGTLALELLQQDAHLDRVFVPVGGGGLAACVAVLIKQLMPQIKVIAVEAEDSACLKAALDAGHPVDLPRVGLFAEGVAVKRIGDETFRLCQEYLDDIITVDSDAICAAMKDLFEDVRAVAEPSGALALAGMKKYIALHNIRGERLAHILSGANVNFHGLRYVSERCELVEQREALLAVTIPEEKGSFLKFCQLLGGRSVTEFNYRFADAKNACIFVGVRLSRGLEERKEILQMLNDGGYSVVDLSDDEMAKLHVRYMVGGRPSHPLQERLYSFEFPESPGALLRFLNTLGTYWNISLFHYRSHGTDYGRVLAAFEKGDHEPDFETRLNELGYDCHDETNNPAFRFFLAG
[1]; expressed in E. coli
  enzyme activity: poor enzyme activity

B2: L481V: E. coli threonine deaminase, Leu at position 481 replaced with Val (protein, listed as Escherichia coli)
chain: MADSQPLSGAPEGAEYLRAVLRAPVYEAAQVTPLQKMEKLSSRLDNVILVKREDRQPVHSFKLRGAYAMMAGLTEEQKAHGVITASAGNHAQGVAFSSARLGVKALIVMPTATADIKVDRLRGFGGEVLLHGANFDEAKRKAIELSQQQGFTWVPPFDHPMVIAGQGTLALELLQQDAHLDRVFVPVGGGGLAACVAVLIKQLMPQIKVIAVEAEDSACLKAALDAGHPVDLPRVGLFAEGVAVKRIGDETFRLCQEYLDDIITVDSDAICAAMKDLFEDVRAVAEPSGALALAGMKKYIALHNIRGERLAHILSGANVNFHGLRYVSERCELVEQREALLAVTIPEEKGSFLKFCQLLGGRSVTEFNYRFADAKNACIFVGVRLSRGLEERKEILQMLNDGGYSVVDLSDDEMAKLHVRYMVGGRPSHPLQERLYSFEFPESPGALLRFLNTLGTYWNISLFHYRSHGTDYGRVLAAFEVGDHEPDFETRLNELGYDCHDETNNPAFRFFLAG
[1]
  Km: 7.1 mM
  IC50: 97 µM

B3: L447F (ilvA219): E. coli threonine deaminase, Leu at position 447 replaced with Phe (protein, listed as Escherichia coli)
chain: MADSQPLSGAPEGAEYLRAVLRAPVYEAAQVTPLQKMEKLSSRLDNVILVKREDRQPVHSFKLRGAYAMMAGLTEEQKAHGVITASAGNHAQGVAFSSARLGVKALIVMPTATADIKVDRLRGFGGEVLLHGANFDEAKRKAIELSQQQGFTWVPPFDHPMVIAGQGTLALELLQQDAHLDRVFVPVGGGGLAACVAVLIKQLMPQIKVIAVEAEDSACLKAALDAGHPVDLPRVGLFAEGVAVKRIGDETFRLCQEYLDDIITVDSDAICAAMKDLFEDVRAVAEPSGALALAGMKKYIALHNIRGERLAHILSGANVNFHGLRYVSERCELVEQREALLAVTIPEEKGSFLKFCQLLGGRSVTEFNYRFADAKNACIFVGVRLSRGLEERKEILQMLNDGGYSVVDLSDDEMAKLHVRYMVGGRPSHPLQERLYSFEFPESPGAFLRFLNTLGTYWNISLFHYRSHGTDYGRVLAAFELGDHEPDFETRLNELGYDCHDETNNPAFRFFLAG
[1]; initial velocity vs threonine concentration
  cooperativity in substrate binding: negative cooperativity

B4: L481M: E. coli threonine deaminase, Leu at position 481 replaced with Met (protein, listed as Escherichia coli)
chain: MADSQPLSGAPEGAEYLRAVLRAPVYEAAQVTPLQKMEKLSSRLDNVILVKREDRQPVHSFKLRGAYAMMAGLTEEQKAHGVITASAGNHAQGVAFSSARLGVKALIVMPTATADIKVDRLRGFGGEVLLHGANFDEAKRKAIELSQQQGFTWVPPFDHPMVIAGQGTLALELLQQDAHLDRVFVPVGGGGLAACVAVLIKQLMPQIKVIAVEAEDSACLKAALDAGHPVDLPRVGLFAEGVAVKRIGDETFRLCQEYLDDIITVDSDAICAAMKDLFEDVRAVAEPSGALALAGMKKYIALHNIRGERLAHILSGANVNFHGLRYVSERCELVEQREALLAVTIPEEKGSFLKFCQLLGGRSVTEFNYRFADAKNACIFVGVRLSRGLEERKEILQMLNDGGYSVVDLSDDEMAKLHVRYMVGGRPSHPLQERLYSFEFPESPGALLRFLNTLGTYWNISLFHYRSHGTDYGRVLAAFEMGDHEPDFETRLNELGYDCHDETNNPAFRFFLAG
[1]
  Km: 6.4 mM
  IC50: 100 µM

B5: Wild type Arabidopsis: wild type Arabidopsis threonine deaminase polypeptide (protein, UniProt Q9ZSS6 92-592, looked up)
Threonine dehydratase …: AMEYLTNILSTKVYDIAIESPLQLAKKLSKRLGVRMYLKREDLQPVFSFKLRGAYNMMVKLPADQLAKGVICSSAGNHAQGVALSASKLGCTAVIVMPVTTPEIKWQAVENLGATVVLFGDSYDQAQAHAKIRAEEEGLTFIPPFDHPDVIAGQGTVGMEITRQAKGPLHAIFVPVGGGGLIAGIAAYVKRVSPEVKIIGVEPADANAMALSLHHGERVILDQVGGFADGVAVKEVGEETFRISRNLMDGVVLVTRDAICASIKDMFEEKRNILEPAGALALAGAEAYCKYYGLKDVNVVAITSGANMNFDKLRIVTELANVGRQQEAVLATLMPEKPGSFKQFCELVGPMNISEFKYRCSSEKEAVVLYSVGVHTAGELKALQKRMESSQLKTVNLTTSDLVKDHLRYLMGGRSTVGDEVLCRFTFPERPGALMNFLDSFSPRWNITLFHYRGQGETGANVLVGIQVPEQEMEEFKNRAKALGYDYFLVSDDDYFKLLMH
[2]
  cooperativity in substrate binding: independent activity

— patent US20050289668A1, “Plants with increased levels of one or more amino acids” (priority 2003, published 2005)
